A short description of the data set: yeast display, Sf9 membrane polyspecificity reagent, FACS + sequencing; frameworks hold sequencing errors. The procedure, abridged: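 Polyreactivity labels are assigned by the sorting gate from which each nanobody was recovered. The gates were low and high (top ~1%), set on anti-HA fluorescence for expression and streptavidin fluorescence for reagent binding. Before sorting, galactose-induced (36–48 hours) yeast display cells were stained for 1 hour at 4 °C with 10% biotinylated, detergent-solubilized Sf9 membrane reagent.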
On to “QVQLVESGGGLVQAGGSLRLSCAASGITFYVYAMGWYRQAPGKERELVAAISRRGGSTSYADSVKGRFTISRDNAKNTVYLQMNSLKPEDTAVYYCAKDTTYYQVYGYGYDYWGQGTQVTVSS”, for which the “polyreactivity (PSR sort gate)” value is “low polyreactivity”.
The same measure for “QVQLVESGGGLVQAGGSLRLSCAASGITFYVYAMGWYRQPPGTERDLVAAISRRGGSTSYADSVKGRFTISRDTAKNTVYLEMNSLKPEDTAVDYCAAGPFYGGIVRRYDYWGQGTQVTVSS”: “low polyreactivity”; for “QVQLVESGGGLVQAGGSLRLSCAASGITFYVYTMGWYRQAPGKERELVAAINGSGGSTNYADSVKGRFTISRDNAKNTVFLQMNSLKPEDTAVYYCAADWSLRLYDYWGQGTQVTVSS”: “low polyreactivity”.
Regarding “QVQLVESGGGLVQAGGSLRLSCAASGITFYYNVMGWYRQAPGKERELVASITSGGSTYYADSVKGRFTISRDNAKNTVYLQMNSLKPEDTAVSYCNKDHALYVDFSYDYWGQGTQVTVSS”, the “polyreactivity (PSR sort gate)” value is on record as “low polyreactivity”.
The same measure for “QVQLVESGGGLVQAGGSLRLSCAASGITFYYYAMGWYRQAPGKERELVAAISRSGGSTYYADSVKGRFTISRDNAKNTVYLQMNSLKPEDTAVYYCANRKGGTLYNYWGQGTQVTVSS”: “high polyreactivity”.
For “QVQLVESGGGLVQAGGSLRLSCAASGITFYYYAMGWYRQAPGKERELVARISYGGGRTYYADSVKGRFTISRDNAKNTVYLQMNSLKPEDTAVYYCAARQGYRSYRRYDYWGQGTQVTVSS” the value was “high polyreactivity”; for “QVQLVESGGGLVQAGGSLRLSCAASGITFYYYAMGWYRQAPGKERELVASIDNSGGSTYYADSVKGRFTISRDNEKNTVYLQMHSLKPEDTAVYFCAAVSRYYFLGVAFLDDYWGQGTLVTVSS”, “high polyreactivity”; for “QVQLVESGGGLVQAGGSLRLSCAASGITFYYYTMGWYRQAPGKERELVAGITRGGRTYYADSVKGRFTISRDNAKNTVYLQMNSLKPEDTAVYYCAADYSYIYGFDYWGQGTQVTVSS”, “low polyreactivity”.
As for “QVQLVESGGGLVQAGGSLRLSCAASGITIAGYAMGWYRQAPGKERELVAAITIGGRTYYADSVKGRFTISRDNAKNTVYLQMNSLKPVDTAVYYCAAARGFWWYDYWGQGTQVTVSS”, the “polyreactivity (PSR sort gate)” value is “high polyreactivity”.
The same measure for “QVQLVESGGGLVQAGGSLRLSCAASGITIFTYAMGWYRQAPGKERELVAAISGSGGSTYYADSVKGRFTISRDNAKNTVYLQMNSLKPEDTAVYSCAAEYTYGSPYDYWGQGTQVTVSS”: “low polyreactivity”; for “QVQLVESGGGLVQAGGSLRLSCAASGITIQGYAMGWYRQAPGKERELVAAINDSGSSTYYADSVKGRFTISRDNAKNTFYLQMNSLKPEYTAVYYCAAYLWLWGQGTQVTVSS”: “low polyreactivity”; for “QVQLVESGGGLVQAGGSLRLSCAASGITIRRYGMGWYRQAPGKERELVATITRDGRTYYADSVKGRFTISRDNAKNTVYLQMNSLKPEDTAVYYCARPARYSYGDGYWGQGTQVTVSS”: “low polyreactivity”.
For “QVQLVESGGGLVQAGGSLRLSCAASGITIRYYAMGWYRQAPGKERELVAAITRRGGSTSYADSVKGRFTISRDNAKNTVYLQMNSLKPEDTAVYYCNARKYTNQATYDYWGQGTQVTVSS” the value was “high polyreactivity”; for “QVQLVESGGGLVQAGGSLRLSCAASGITITRYDMGWYRQAPGKERELVAAINWSGGRTYYADSVKGRFTISRDNAKYTVYLQMNSLKPEDTAVYYCNRALKYRRRDYWGQGTQVTVSS”, “high polyreactivity”; for “QVQLVESGGGLVQAGGSLRLSCAASGITITTYAMGWYRQAPGKERELVAAISSASSTYYADSVKGRFTISRDNAKNTVYLQMNSLKPEDTAVYYCAARVFKKYRPSGRYYYWGQGTQVTVSS”, “high polyreactivity”.
For “QVQLVESGGGLVQAGGSLRLSCAASGITIVNYVMGWYRKAPGKERELVAAISIGGGTYYADSVKGRFTISRDNAKNTVYLQINSLKPEDTAVYYCNASYGGLSFYIGVYVTGYDYWGQGTQVTVSS” the value was “low polyreactivity”; for “QVQLVESGGGLVQAGGSLRLSCAASGITIVRYAMGWYRQAPGKERELVAAINRSGGSTYYADSVKGRFTISRDNAKNTVYLQMNSLKPEDTAVYYCAARLYGKYDPPGYYYWGQGTQVTVSS”, “high polyreactivity”; for “QVQLVESGGGLVQAGGSLRLSCAASGITIYKYAMGWSRQAPGKERELVAVISRSGGSTYYADSVKGRFTISRDNAKNTVYLQMNSLKPEDTAVYYCAADYRYPRQSKYYYWGQGTQVTVSS”, “high polyreactivity”.
On to “QVQLVESGGGLVQAGGSLRLSCAASGITIYNYAMGWYRQAPGKERELVAAITRSGGSTYYADSVKGRFTISRDNAKNTVYLQMNSLKPEDTAVYYCATGKYWRYDYWGQGTQVTVSS”, for which the “polyreactivity (PSR sort gate)” value is on record as “high polyreactivity”.
For “QVQLVESGGGLVQAGGSLRLSCAASGITIYYNAMGWYRQAPGKARELVAAITQSGGSTFYADSVKGRFTISRDNAKNTVYLQMNSLKPEDTAVYYWGQGTQVTVSS” the value was “low polyreactivity”; for “QVQLVESGGGLVQAGGSLRLSCAASGITLDRYDMGWYRQAPGKERELVAAISRSGVRTYYADSVKGRFTISRDNAKNTVYLQMNSLKPEDTAVYYCNKGYARRYASGYDYWGQGTQVTVSS”, “high polyreactivity”.
On to “QVQLVESGGGLVQAGGSLRLSCAASGITLDYYAMGWYRQAPGKERELVASITSGGSTNYADSVKGRFTISRDNAKNTVYLQMNSLKPVDTAVYYCARDVNYPGSEGDYWGQGTQVTVSS”, for which the “polyreactivity (PSR sort gate)” value was “low polyreactivity”.
For “QVQLVESGGGLVQAGGSLRLSCAASGITLEDYDMGWYRQAPGKERELVAAITSGGSTNYADSVKGRFTISRDNAKNTVYLQMNSMKPEDTAVYYCNADFAIRWWYYFGSGYDYWGQGTQVTVSS”, the “polyreactivity (PSR sort gate)” value is on record as “low polyreactivity”.
In the case of “QVQLVESGGGLVQAGGSLRLSCAASGITLFGYAMGWYRQAPGKERELVAGISRRGGSTYYADSVKGRFTISRDNAKNTVYLQMNSLKPEDTAVYYCAAVYVQPPATAQHYYYWGQGTQVTVSS”, the “polyreactivity (PSR sort gate)” value is given as “high polyreactivity”.
For “QVQLVESGGGLVQAGGSLRLSCAASGITLFYYAMGWYRQAPGKERELVAAISWSGGSTYYADSVKGRFTISRDNAKNTDDLQMNSLKPEDTAVYYCNRVSRAPFDYWGQATQVTVSS” the value was “high polyreactivity”.
For “QVQLVESGGGLVQAGGSLRLSCAASGITLHEYVMGWYRQAPGKERELVAAISRRGDSTYYADSVKGRFTISRDNAKNTVYLQMNSLKPEDTAVYYCAARWYWYWSSWDYYSWGQGTQVTVSS” the value was “low polyreactivity”; for “QVQLVESGGGLVQAGGSLRLSCAASGITLKRYAMGWYRQAPGKERELVAAITGRGGGTNYADSVKGRFTISRDNAKNTVYLQMNSLKPEDTAVYYCTAATYGDYSNLGYGYWGQGTQVTVSS”, “high polyreactivity”; for “QVQLVESGGGLVQAGGSLRLSCAASGITLNRNAMGWYRQAPGKERELVAAISSGGNTYYADSVKGRFSISRDNAKNTVYLQMNSLKPEDTEVYYCAARQVQAPRSIGFYFWGQGTQVTVSS”, “high polyreactivity”.
On to “QVQLVESGGGLVQAGGSLRLSCAASGITLRRNAMGWYRQAPGKERELVARISTTGGSTYYADSVKGRFTISRDNAKNTVYLQMNSLKPEDTAVYYCAARAPLGFWHYDYWGQGTQVTVSS”, for which the “polyreactivity (PSR sort gate)” value was “high polyreactivity”.
The same measure for “QVQLVESGGGLVQAGGSLRLSCAASGITLSNYAMGWYRQAPVKEREFVAALTRSGDSTYYADSVKGRFTISRDNAQNTVYLQMNSLKPEDTAVYYCPAEEHRYTEVYPTSTTDEYDYRGQGTQVTVSS”: “low polyreactivity”.

Values taken from the nanobody polyreactivity screen of Harvey et al. (2022).
